In the RNAGym collection of RNA variant scans (doi:10.7554/elife.80360):

B1: Hairpin Ribozyme (parent)
chain: GUCCUCUUUCACGUGCGCGUGAAAGAGAGAAGUGAACCAGAGAAACACACGUUGUGGUAUAUUACCUGGUA

Variants of: B1
Experiment: self-cleavage, relative activity (ratio to wild type); higher = more cleavage; co-transcriptional

| Variant | self-cleavage |
| --- | --- |
| GUCCUCGUUCACGUUCGCGUGAAAGAGAGAAGUGAACCAGAGAAACACACGUUGUGGUAUAUUACCUGGUA [U7G G15U] | 0.955 |
| GUCCUCUUGCACGCGCGCGUGAAAGAGAGAAGUGAACCAGAGAAACACACGUUGUGGUAUAUUACCUGGUA [U9G U14C] | 0.831 |
| GUCCUCUUACACGUGCGCGUGAAAGAGAGAAGGGAACCAGAGAAACACACGUUGUGGUAUAUUACCUGGUA [U9A U33G] | 0.105 |
| GUCCUCUUUCACGUGCGCGUGAAAGAGAGAAGUGAACCUGAGAAACACACGUUGUGGUAUAUUAGCUGGUA [A39U C65G] | 0.232 |
| GUCCUCUUUCACGUGCGCCUGAAAGAGAGAAGUGAACCAGAGAAACACACGUUGUGGUAUAAUACCUGGUA [G19C U62A] | 0.228 |
| GUCCUCUUUCACGUGCGCGUGAAAGAGAGAAGUGAACCAGAGAAGCACACAUUGUGGUAUAUUACCUGGUA [A45G G51A] | 0.161 |
| GUCCUCUUUCACGUGCGCGUGAAAGAGAGAAGUGAACCAGAGAAACGCACGUUGUGGUAUAUAACCUGGUA [A47G U63A] | 0.211 |
| GUCCUCUUUCACGUGCGCGUGAAAGAGAGAAGUGAACCAGAGAAACAUACGUUGUGGUAUAUUACCUGCUA [C48U G69C] | 0.124 |
| GUCCCCUUUCACGUGCGCGAGAAAGAGAGAAGUGAACCAGAGAAACACACGUUGUGGUAUAUUACCUGGUA [U5C U20A] | 0.532 |
| GUCCUCUUUCACGUGCGCGUGAAAGAGAGAAGUGAACCAGAGAAACACACGUUGUGGGAUAUUACCUGAUA [U58G G69A] | 0.292 |
| GUCCUCUUUCACGUGCGCGUGAAAGAGAGAAGUCAACCAGAGAAACACACGUUGUGGUCUAUUACCUGGUA [G34C A59C] | 0.145 |
| GUCCUCUUUCACGUACGCGUGAAAGAGAGAAGAGAACCAGAGAAACACACGUUGUGGUAUAUUACCUGGUA [G15A U33A] | 0.0921 |
| GUCCUCUUUCACGUGCGCGUCAAAGAGAGAAGUGAACCAGAGAAACACACGUUGUUGUAUAUUACCUGGUA [G21C G56U] | 0.268 |
| GUCCUCUUUCACGUGCGCGUGAAAUAGAGAAGUGAACCAGAGAAACACACGUUGUGGUAUAUUACAUGGUA [G25U C66A] | 0.182 |
| GUCCUCUUUCACGUGCGCGUGAAAGAUAGAAGUGAACCAGAGAAACACACGUUGUGGUAUCUUACCUGGUA [G27U A61C] | 0.149 |
| GUCCUCUUUCACGUGCGCGUGAAAGAGAGAAGUGAACCAGAGAAACACACGUUGUGGUAUAUUGCCUGUUA [A64G G69U] | 0.116 |
| GUCCUCUUUCACGUGCGCGUGAAAGAGAGAAGUGAACCAGAGAAACACACGUUGUGGUAAAUUACCUGGUG [U60A A71G] | 0.839 |
| GUCCUCUGUUACGUGCGCGUGAAAGAGAGAAGUGAACCAGAGAAACACACGUUGUGGUAUAUUACCUGGUA [U8G C10U] | 0.654 |
| GUCCUCUUUCACGUGCGCGUGAAAGCGAGAAGUGAACCAGAGAAAAACACGUUGUGGUAUAUUACCUGGUA [A26C C46A] | 0.175 |

| Variant | self-cleavage |
| --- | --- |
| GUCCUCUUUCACGUGCGCGUGAAAGAGAGAAGUGAACCAGAGAAACACACGUCGUGGUAUAUUACCUGGUU [U53C A71U] | 0.82 |
| GUCCUCUUUCACGUGCCCGUGAAAGAGAGAAGUUAACCAGAGAAACACACGUUGUGGUAUAUUACCUGGUA [G17C G34U] | 1.42 |
| AUCCUCUUUCACGUGCGCGUGAAAGAGAGAAGUGAACCAGAGAAACACACGUUGUGGUAUAUUACCUGGUU [G1A A71U] | 0.196 |
| GUCCUCUUUCACGUGCGCGUGAAAGAGAGAAGUGAACCAGAGAAACACACGUUGUGGUAAACUACCUGGUA [U60A U62C] | 0.373 |
| GUCCUCUUUCACGUGGGCGUGAAAGAGAGAAGUGAAGCAGAGAAACACACGUUGUGGUAUAUUACCUGGUA [C16G C37G] | 0.386 |
| GUCCUCUUUCACGCGCGCGUGAACGAGAGAAGUGAACCAGAGAAACACACGUUGUGGUAUAUUACCUGGUA [U14C A24C] | 0.943 |
| GUCCUCUUUCACGUGGGCGUGAAAGAGAGAAGUGAACCAGAGAAACACACGUUGUGGAAUAUUACCUGGUA [C16G U58A] | 0.488 |
| GUCCUCUUUCACGUGCGCCUGAAAGAGAGAAGUGAACCAGAGAAACACACGUUGUGGAAUAUUACCUGGUA [G19C U58A] | 0.569 |
| GUCCUCUUUCAGGUGCGCGUGAAAGAGAGAAGUGAACCAGAGAAACACACUUUGUGGUAUAUUACCUGGUA [C12G G51U] | 0.663 |
| GUCCUCUUUCACGUGCGCGUGAACGAGAGAAGUGAACCAGAGAAACACACGUUGUGGUAUAUUACCUGGUU [A24C A71U] | 0.696 |
| GACCUCUUUCACGUGCGCGUGUAAGAGAGAAGUGAACCAGAGAAACACACGUUGUGGUAUAUUACCUGGUA [U2A A22U] | 0.208 |
| GUCCUCUUUCACGUGCGCGUGAAAGAGAGAAGAGAACCAGAGAAACACACGUUGUGGUAUAUUACCUGGAA [U33A U70A] | 0.0761 |
| GUCCUCUUUCACGUGCGCGUGAAAGAGAGAAGUGAAUAAGAGAAACACACGUUGUGGUAUAUUACCUGGUA [C37U C38A] | 0.145 |
| GUCCUCUUUCACGUGCGCGUGAAAGAGAGUAGUGAACCAGAGAAACACACGUUGUGGUAUAUUACCUAGUA [A30U G68A] | 0.0299 |
| GUCCUCUUUCAGGUGCGCGUGAAAGAGAGAAGUGAACCAAAGAAACACACGUUGUGGUAUAUUACCUGGUA [C12G G40A] | 0.266 |
| GUCCUCUUUCACAUGCGCGUGAAUGAGAGAAGUGAACCAGAGAAACACACGUUGUGGUAUAUUACCUGGUA [G13A A24U] | 0.627 |
| GUCCUCUUUCACGUGCGCGCGAAAGAGAGAAGUGAACCAGAGAAACACACGUUGGGGUAUAUUACCUGGUA [U20C U55G] | 0.426 |
| GUCCUCUUUCACUUGCGCGUGAAAGAGAGAAGUGAACCAGAGAAACACGCGUUGUGGUAUAUUACCUGGUA [G13U A49G] | 0.483 |
| GUCCUCUUUCAUCUGCGCGUGAAAGAGAGAAGUGAACCAGAGAAACACACGUUGUGGUAUAUUACCUGGUA [C12U G13C] | 0.791 |
